Key:
Assay in all cases: MST
[1] = system: SUV420H1(1-390) K258A (human); settings: histone H4 K20M; MST: 20 mM HEPES pH 7.5, 50 mM NaCl (listed twice), 50 mM KCl, 1 mg/mL BSA, 0.05% Tween-20, 40 uM SAM, 2 mM DTT, room temperature; EMSA: 25 mM HEPES pH 7.5 …
[2] = system: SUV420H1(1-390) R220A (human); settings: 40 uM SAM; text says NCP H2A, legend H4K20M; histone H4 K20M; MST: 20 mM HEPES pH 7.5, 50 mM NaCl (listed twice), 50 mM KCl, 1 mg/mL BSA, 0.05% Tween-20, 40 uM SAM, 2 mM DTT, room temperature; EMSA: 25 mM HEPES pH 7.5 …
[3] = system: SUV420H1(1-390) R257A (human); settings: histone H4 K20M; MST: 20 mM HEPES pH 7.5, 50 mM NaCl (listed twice), 50 mM KCl, 1 mg/mL BSA, 0.05% Tween-20, 40 uM SAM, 2 mM DTT, room temperature; EMSA: 25 mM HEPES pH 7.5 …
[4] = system: SUV420H1(1-390) R286A (human); settings: histone H4 K20M; MST: 20 mM HEPES pH 7.5, 50 mM NaCl (listed twice), 50 mM KCl, 1 mg/mL BSA, 0.05% Tween-20, 40 uM SAM, 2 mM DTT, room temperature; EMSA: 25 mM HEPES pH 7.5 …
[5] = system: SUV420H1(1-390) R352A (human); settings: 40 uM SAM; text says NCP H2A, legend H4K20M; histone H4 K20M; MST: 20 mM HEPES pH 7.5, 50 mM NaCl (listed twice), 50 mM KCl, 1 mg/mL BSA, 0.05% Tween-20, 40 uM SAM, 2 mM DTT, room temperature; EMSA: 25 mM HEPES pH 7.5 …
[6] = system: SUV420H1(1-390) R357A (human); settings: 40 uM SAM; text says NCP H2A, legend H4K20M; histone H4 K20M; MST: 20 mM HEPES pH 7.5, 50 mM NaCl (listed twice), 50 mM KCl, 1 mg/mL BSA, 0.05% Tween-20, 40 uM SAM, 2 mM DTT, room temperature; EMSA: 25 mM HEPES pH 7.5 …
[7] = system: SUV420H1(1-390) R357H (human); settings: 40 uM SAM; text says NCP H2A, legend H4K20M; histone H4 K20M; MST: 20 mM HEPES pH 7.5, 50 mM NaCl (listed twice), 50 mM KCl, 1 mg/mL BSA, 0.05% Tween-20, 40 uM SAM, 2 mM DTT, room temperature; EMSA: 25 mM HEPES pH 7.5 …
[8] = system: SUV420H1(1-390) S255F (human); settings: histone H4 K20M; MST: 20 mM HEPES pH 7.5, 50 mM NaCl (listed twice), 50 mM KCl, 1 mg/mL BSA, 0.05% Tween-20, 40 uM SAM, 2 mM DTT, room temperature; EMSA: 25 mM HEPES pH 7.5 …
[9] = system: SUV420H1(1-390) S283L (human); settings: histone H4 K20M; MST: 20 mM HEPES pH 7.5, 50 mM NaCl (listed twice), 50 mM KCl, 1 mg/mL BSA, 0.05% Tween-20, 40 uM SAM, 2 mM DTT, room temperature; EMSA: 25 mM HEPES pH 7.5 …
[10] = system: SUV420H1(1-390) Y349A (human); settings: 40 uM SAM; text says NCP H2A, legend H4K20M; histone H4 K20M; MST: 20 mM HEPES pH 7.5, 50 mM NaCl (listed twice), 50 mM KCl, 1 mg/mL BSA, 0.05% Tween-20, 40 uM SAM, 2 mM DTT, room temperature; EMSA: 25 mM HEPES pH 7.5 …

## NCP H2A, H4K20M
[1]
  Kd: 0.112 µM
[2]
  Kd: 0.093 µM
[3]
  Kd: 0.144 µM
[4]
  Kd: 0.323 µM
[5]
  Kd: 0.22 µM
[6]
  Kd: 0.213 µM
[7]
  Kd: 0.083 µM
[8]
  Kd: 0.182 µM
[9]
  Kd: 0.085 µM
[10]
  Kd: 0.108 µM
